# Values joined by “and” are separate entries in the source; they are usually repeats but may differ in a detail not shown here. Equal values may be shown once. Ends that are not written are not given here.
# Legend:
# [1] = molecular target: Vibrio maritimus FtsA residues 1-396 (VmFtsA^1-396) (Vibrio maritimus); assay: SPR; Biacore T200, FtsA immobilised on CM5 chip by amide coupling (2000-7800 RU), FtsN peptides injected 120 s in 1:2 dilution series; binding buffer (50 mM HEPES/KOH, 100 mM KAc, 5 mM MgAc2, pH 7.7); equilibrium response fitted to a single-site model
# [2] = molecular target: Vibrio maritimus FtsA residues 1-396 (VmFtsA^1-396) (Vibrio maritimus); assay: crystal structure; co-crystallisation of VmFtsA^1-396 at 3 mg/ml with 2 mM ATP and 0.353 mM VmFtsN^1-29; crystallisation at pH 8.5
# [3] = molecular target: VmFtsN^1-29-C-Atto 495 (Vibrio maritimus); assay: fluorescence polarisation; C-terminally truncated FtsA titrated (1:2 dilution series) into 20 nM Atto 495-labelled FtsN peptide; binding buffer with 0.05 % v/v Tween-20, RT; two-step model
# [4] = system: FtsA cysteine mutant E. coli strains; assay: In vivo cysteine cross-linking, Western blot; assay type: cell-based, Escherichia coli; conditions: Western blot against 3x HA-tag
# Method: Strains were grown to exponential phase (OD600 = 0.2-0.4) in LB from overnight cultures, and 0.9375 OD units harvested using centrifugation at 4°C. Cells were kept on ice for the duration of the experiment, unless stated otherwise. Cells were washed in 500 μl PBS and resuspended in 50 μl PBS. 1.25 μl DMSO or cross-linker (dBBr: Dibromobimane, BMOE: Bismaleimidoethane, BMB: 1,4-bismaleimidobutane or BMH: Bismaleimidohexane) in DMSO (20 mM stock) were added. Samples were incubated for 10 min and quenched by adding 1 μl 2-ME (1.43 M stock in MPW). Cells were resuspended in 50 μl lysis buffer [1 mM EDTA (pH 7.4), 14.3 mM 2-ME, cOmplete EDTA-free Protease Inhibitor Cocktail (Roche), 0.25 U/μl Benzonase (Merck) and 0.5 U/μl ReadyLyse Lysozyme (Lucigen) in B-PER (ThermoFisher)]. Samples were incubated at RT for 5 min. 50 μl of 2x SDS sample loading buffer supplemented with 3 % v/v 2-ME were added. Samples were incubated at 95°C for 5 min, and the equivalent of 0.1875 OD units of cells was analysed by SDS-PAGE. Western blotting was performed using a Trans-Blot turbo (BioRad) with the corresponding Midi 0.2 μm PVDF transfer pack. Blots were run at 25 V and 2.5 A for 7 min. Membranes were blocked in PBS + 5 % milk for 30-40 min, washed in PBS and incubated with anti-HA-Peroxidase antibody (Roche 12013819001) (1/1000 in PBST + 5 % milk) at RT for 1-1.5h. Membranes were washed thoroughly with PBST, developed using the ECL Prime Western blotting detection kit (Amersham/Cytiva) and imaged on a Gel DocTM XR+ (Bio-Rad). Presented images were contrast-adjusted for display purposes.
# FtsA = molecular target: T1, FtsA (Escherichia coli, UniProt P0ABH0); assay: SPR, EcFtsN^1-32 truncations and mutations binding to immobilised FtsA; conditions: SPR equilibrium response; peptide 1:2 dilution series from 20 μM; mean ± SEM (n ≥ 2 for each construct); asterisk: maximum response fixed during fitting, approximate values; ND: not determinable; read-out: SPR K^eqd
# T1 construct: made in house; host or cells: E. coli C41(DE3)
# Method: SPR was performed using a Biacore T200 using CM5-sensor chips (Cytiva). Reference control and analyte channels were equilibrated in binding buffer. […] After reference and buffer signal correction, sensogram data were fitted using Prism 8.0 (GraphPad). Equilibrium response (Req) data were fitted to a single-site interaction model to determine Kd: (1) Req=(CRmax/C+Kd)+B, where C is the analyte concentration and Rmax is the maximum response at saturation and B is the background resonance.
# [5] = molecular target: T2, Vibrio maritimus FtsA residues 1-396 (VmFtsA^1-396) (Vibrio maritimus); assay: FP; two-step model, second transition (polymerisation)
# T2 chain: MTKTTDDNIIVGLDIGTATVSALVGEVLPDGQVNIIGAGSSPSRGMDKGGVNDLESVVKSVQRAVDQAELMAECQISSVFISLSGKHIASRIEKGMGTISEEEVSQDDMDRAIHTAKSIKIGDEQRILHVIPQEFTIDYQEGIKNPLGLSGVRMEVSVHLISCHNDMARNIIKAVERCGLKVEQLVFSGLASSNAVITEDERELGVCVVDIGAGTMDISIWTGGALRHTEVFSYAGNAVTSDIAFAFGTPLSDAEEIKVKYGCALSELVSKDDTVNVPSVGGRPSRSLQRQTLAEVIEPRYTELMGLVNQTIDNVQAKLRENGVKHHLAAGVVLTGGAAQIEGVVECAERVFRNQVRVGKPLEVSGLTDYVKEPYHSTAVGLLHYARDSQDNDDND
# [6] = molecular target: T2, Vibrio maritimus FtsA residues 1-396 …; assay: AUC; two-step model, second transition (polymerisation)
# [7] = molecular target: T2, Vibrio maritimus FtsA residues 1-396 …; assay: FP; two-step model, first transition (FtsN binding)
# [8] = molecular target: T2, Vibrio maritimus FtsA residues 1-396 …; assay: AUC; two-step model, first transition (FtsN binding)
# [9] = molecular target: the molecule itself; assay: cryo-EM with 2D classification; EcFtsA at 0.15 mg/ml with 1 mM ATP on lipid monolayer, without FtsN peptide
# [10] = molecular target: the molecule itself; assay: co-sedimentation; co-pelleting: truncated FtsA at 1 mg/ml (~23 μM) with half, 1-, 3-, 6- or 10-fold molar FtsN peptide in binding buffer, 20°C, 20,000x g for 10 min, SDS-PAGE of supernatant and pellet
# [11] = ftsA^3x HA, Q155C mutant, exponential phase cells in PBS on ice, 10 min
molecule,measurement,setting,value
"Vibrio maritimus FtsN cytoplasmic peptide, residues 1-29 (VmFtsN^1-29)",fold weaker than the EcFtsA^1-405-EcFtsN^1-32 interaction,[1],3 fold
Vibrio maritimus FtsA residues 1-396 (VmFtsA^1-396) (domain or fragment),stoichiometry N,[2],4
same,fold weaker for the first binding event than EcFtsA^1-405 with FtsN^(1-32-C-Atto 495),[3],4 fold
"Cc1c(CBr)n2c(CBr)c(C)c(=O)n2c1=O [dBBr, dibromobimane]","Covalent FtsA dimer after in vivo cross-linking, in words","[4]; ftsA^3x HA, D123C mutant, exponential phase cells in PBS on ice, 10 min",Signal for a FtsA dimer can be detected
"MAQRDYVRRSQPAPSAASASTSRKKQRNLPAV [EcFtsN^1-32, ΔRK2]",Kd,FtsA,~166 µM
"O=C1C=CC(=O)N1CCN1C(=O)C=CC1=O [BMOE, bismaleimidoethane]","Covalent FtsA dimer after in vivo cross-linking, in words","[4]; double cysteine mutants ftsA^3x HA, P98C, S118C and ftsA^3x HA, E199C, S252C",Signal for covalent FtsA dimers can be detected for both double cysteine mutants
same,"Covalent FtsA dimer after in vivo cross-linking, in words",[4]; [11],but not with BMOE
"MAQRDYVRRSQPAPSRRKKSTSASAQRNLPAV [EcFtsN^1-32, ΔRK3]",Kd,FtsA,~80.6 µM
"O=C1C=CC(=O)N1CCCCN1C(=O)C=CC1=O [BMB, 1,4-bismaleimidobutane]","Covalent FtsA dimer after in vivo cross-linking, in words",[4]; [11],FtsA dimers can be detected
"O=C1C=CC(=O)N1CCCCCCN1C(=O)C=CC1=O [BMH, bismaleimidohexane]","Covalent FtsA dimer after in vivo cross-linking, in words",[4]; [11],FtsA dimers can be detected
MANRDYVRRGKGTSRRPAKKKTSGKKPWRC (Atto 495 (maleimide) on the added C-terminal cysteine) [VmFtsN^1-29-C-Atto 495],Kd,[5],10 µM
same,Kd,[6],55 µM
same,Kd,[7],62 nM
same,Kd,[8],18 nM
"E. coli FtsA (EcFtsA), full length (natural protein, UniProt P0ABH0 1-420, looked up, FtsA, E. coli, full length; also called WT; source: E. coli C41(DE3), purified (HisTrap, chitin resin with intein cleavage, SEC); not shown: intein-CBD-12H, C-terminal, cleaved) MIKATDRKLVVGLEIGTAKVAALVGEVLPDGMVNIIGVGSCPSRGMDKGGVNDLESVVKCVQRAIDQAELMADCQISSVYLALSGKHISCQNEIGMVPISEEEVTQEDVENVVHTAKSVRVRDEHRVLHVIPQEYAIDYQEGIKNPVGLSGVRMQAKVHLITCHNDMAKNIVKAVERCGLKVDQLIFAGLASSYSVLTEDERELGVCVVDIGGGTMDIAVYTGGALRHTKVIPYAGNVVTSDIAYAFGTPPSDAEAIKVRHGCALGSIVGKDESVEVPSVGGRPPRSLQRQTLAEVIEPRYTELLNLVNEEILQLQEKLRQQGVKHHLAAGIVLTGGAAQIEGLAACAQRVFHTQVRIGAPLNITGLTDYAQEPYYSTAVGLLHYGKESHLNGEAEVEKRVTASVGSWIKRLNSWLRKEF",stoichiometry N,[9],13 and 12
"E. coli FtsA residues 1-405 (EcFtsA^1-405) (domain or fragment, UniProt P0ABH0 1-405, looked up, also called C-terminally truncated FtsA; source: E. coli C41(DE3), purified (HisTrap, SUMO cleavage with GST-SENP1, SEC); not shown: 6H-SUMO, N-terminal, cleaved) MIKATDRKLVVGLEIGTAKVAALVGEVLPDGMVNIIGVGSCPSRGMDKGGVNDLESVVKCVQRAIDQAELMADCQISSVYLALSGKHISCQNEIGMVPISEEEVTQEDVENVVHTAKSVRVRDEHRVLHVIPQEYAIDYQEGIKNPVGLSGVRMQAKVHLITCHNDMAKNIVKAVERCGLKVDQLIFAGLASSYSVLTEDERELGVCVVDIGGGTMDIAVYTGGALRHTKVIPYAGNVVTSDIAYAFGTPPSDAEAIKVRHGCALGSIVGKDESVEVPSVGGRPPRSLQRQTLAEVIEPRYTELLNLVNEEILQLQEKLRQQGVKHHLAAGIVLTGGAAQIEGLAACAQRVFHTQVRIGAPLNITGLTDYAQEPYYSTAVGLLHYGKESHLNGEAEVEKRVTASV",binding result,[10],binds

# — article PMC7613929 (Nature microbiology, 2022)
